{
  "source": "paper PMC3433420",
  "origin": "cited, not measured here",
  "conditions_in_all_cases": "cited from earlier work",
  "key": {"[1]": {"molecular_target": "SYK-C (Homo sapiens) (UniProt P43405)"}, "[2]": {"molecular_target": "PIK3R1-C (Homo sapiens) (UniProt P27986)", "sequence (P27986 328-723)": "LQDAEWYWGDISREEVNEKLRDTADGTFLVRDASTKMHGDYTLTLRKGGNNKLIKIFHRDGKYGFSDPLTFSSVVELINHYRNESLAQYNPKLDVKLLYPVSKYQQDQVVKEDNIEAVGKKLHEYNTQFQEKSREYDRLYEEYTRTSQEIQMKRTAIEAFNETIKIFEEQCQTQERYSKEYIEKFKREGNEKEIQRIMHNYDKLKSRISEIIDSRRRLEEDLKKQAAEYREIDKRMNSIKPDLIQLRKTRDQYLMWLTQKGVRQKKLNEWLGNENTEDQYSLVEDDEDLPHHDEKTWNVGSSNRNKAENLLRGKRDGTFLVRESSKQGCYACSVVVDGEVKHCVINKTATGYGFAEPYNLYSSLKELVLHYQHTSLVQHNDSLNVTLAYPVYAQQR"}, "[3]": {"molecular_target": "RASA1-N (Homo sapiens) (UniProt P20936)", "sequence (P20936 176-446)": "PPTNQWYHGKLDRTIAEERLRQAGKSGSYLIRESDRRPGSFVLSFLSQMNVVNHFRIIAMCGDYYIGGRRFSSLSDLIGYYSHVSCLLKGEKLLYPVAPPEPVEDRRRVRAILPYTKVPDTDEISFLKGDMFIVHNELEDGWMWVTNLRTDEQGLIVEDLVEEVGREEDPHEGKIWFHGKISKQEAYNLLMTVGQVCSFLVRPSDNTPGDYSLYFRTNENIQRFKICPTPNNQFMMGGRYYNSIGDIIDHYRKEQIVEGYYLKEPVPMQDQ"}, "[4]": {"molecular_target": "PIK3R3-C (Homo sapiens) (UniProt Q92569)"}, "[5]": {"molecular_target": "SH2D3C (Homo sapiens) (UniProt Q8N5H7)", "sequence (Q8N5H7 215-324)": "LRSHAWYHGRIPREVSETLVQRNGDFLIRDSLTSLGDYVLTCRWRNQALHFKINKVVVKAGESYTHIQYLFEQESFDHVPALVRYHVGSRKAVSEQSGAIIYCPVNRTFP"}, "[6]": {"molecular_target": "PIK3R1-N (Homo sapiens) (UniProt P27986)", "sequence (P27986 328-723)": "as the sequence (P27986 328-723) above"}, "[7]": {"molecular_target": "TENC1 (Homo sapiens) (UniProt Q63HR2)", "sequence (Q63HR2 1135-1252)": "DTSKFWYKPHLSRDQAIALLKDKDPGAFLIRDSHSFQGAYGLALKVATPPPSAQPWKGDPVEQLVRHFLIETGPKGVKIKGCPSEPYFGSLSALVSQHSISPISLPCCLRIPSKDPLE"}, "[8]": {"molecular_target": "PIK3R3-NC (Homo sapiens) (UniProt Q92569)"}, "[9]": {"molecular_target": "SHC1-PTB (Homo sapiens) (UniProt P29353)", "sequence (P29353 483-583)": "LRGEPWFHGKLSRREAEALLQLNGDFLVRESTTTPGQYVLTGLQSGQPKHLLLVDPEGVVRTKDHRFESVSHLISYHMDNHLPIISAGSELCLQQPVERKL"}, "[10]": {"molecular_target": "RASA1-N (Homo sapiens) (UniProt P20936)", "remark": "listed apart in the source"}, "[11]": {"molecular_target": "YES1 (Homo sapiens) (UniProt P07947)", "sequence (P07947 153-260)": "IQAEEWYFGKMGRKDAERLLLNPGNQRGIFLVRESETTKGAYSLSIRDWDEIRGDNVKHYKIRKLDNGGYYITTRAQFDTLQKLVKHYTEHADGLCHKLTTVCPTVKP"}, "[12]": {"molecular_target": "PIK3R3-NC (Homo sapiens) (UniProt Q92569)", "remark": "listed apart in the source"}, "[13]": {"molecular_target": "PIK3R3-NC (Homo sapiens) (UniProt Q92569)", "remark": "listed apart in the source"}, "[14]": {"molecular_target": "BMX (Homo sapiens) (UniProt P51813)", "sequence (P51813 291-397)": "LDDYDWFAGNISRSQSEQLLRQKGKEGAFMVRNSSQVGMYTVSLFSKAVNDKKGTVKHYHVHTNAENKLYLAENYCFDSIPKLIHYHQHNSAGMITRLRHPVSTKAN"}, "[15]": {"molecular_target": "ABL2 (Homo sapiens) (UniProt P42684)", "sequence (P42684 168-268)": "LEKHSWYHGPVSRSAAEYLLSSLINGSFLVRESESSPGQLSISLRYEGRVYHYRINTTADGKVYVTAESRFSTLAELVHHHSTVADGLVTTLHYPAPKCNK"}, "[16]": {"molecular_target": "CRKL (Homo sapiens) (UniProt P46109)", "sequence (P46109 9-107)": "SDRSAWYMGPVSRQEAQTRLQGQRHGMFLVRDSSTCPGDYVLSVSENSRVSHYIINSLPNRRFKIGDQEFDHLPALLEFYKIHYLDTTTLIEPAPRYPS"}, "[17]": {"molecular_target": "SOCS2 (Homo sapiens) (UniProt O14508)", "sequence (O14508 43-161)": "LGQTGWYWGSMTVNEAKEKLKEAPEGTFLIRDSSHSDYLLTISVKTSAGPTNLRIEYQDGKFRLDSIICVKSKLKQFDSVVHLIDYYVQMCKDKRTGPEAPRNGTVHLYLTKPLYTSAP"}, "[18]": {"molecular_target": "VAV2 (Homo sapiens) (UniProt P52735)", "sequence (P52735 668-772)": "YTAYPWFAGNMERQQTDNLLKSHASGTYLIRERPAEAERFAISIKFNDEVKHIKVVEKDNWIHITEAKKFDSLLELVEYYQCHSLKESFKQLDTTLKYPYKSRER"}, "[19]": {"molecular_target": "SYK-C (Homo sapiens) (UniProt P43405)", "remark": "listed apart in the source"}, "[20]": {"molecular_target": "SHD (Homo sapiens) (UniProt Q96IW2)", "sequence (Q96IW2 235-340)": "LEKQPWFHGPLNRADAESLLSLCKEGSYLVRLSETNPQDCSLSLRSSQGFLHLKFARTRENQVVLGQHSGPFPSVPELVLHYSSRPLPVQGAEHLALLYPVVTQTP"}, "[21]": {"molecular_target": "SHC2-PTB (Homo sapiens) (UniProt P98077)", "sequence (P98077 482-582)": "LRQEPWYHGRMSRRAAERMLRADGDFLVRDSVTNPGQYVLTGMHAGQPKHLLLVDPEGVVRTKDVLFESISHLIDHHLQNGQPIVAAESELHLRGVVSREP"}, "[22]": {"molecular_target": "SHF (Homo sapiens) (UniProt Q7M4L6)", "sequence (Q7M4L6 318-423)": "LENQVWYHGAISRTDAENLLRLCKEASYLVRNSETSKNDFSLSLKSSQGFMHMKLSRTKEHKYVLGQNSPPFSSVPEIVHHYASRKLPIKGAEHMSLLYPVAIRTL"}, "[23]": {"molecular_target": "VAV3 (Homo sapiens) (UniProt Q9UKW4)", "sequence (Q9UKW4 667-771)": "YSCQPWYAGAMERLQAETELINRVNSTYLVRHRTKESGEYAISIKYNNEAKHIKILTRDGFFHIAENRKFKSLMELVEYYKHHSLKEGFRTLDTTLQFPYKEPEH"}, "[24]": {"molecular_target": "CRKL (Homo sapiens) (UniProt P46109)", "remark": "listed apart in the source"}, "[25]": {"molecular_target": "PIK3R3-NC (Homo sapiens) (UniProt Q92569)", "remark": "listed apart in the source"}, "[26]": {"molecular_target": "NCK2 (Homo sapiens) (UniProt O43639)", "sequence (O43639 280-380)": "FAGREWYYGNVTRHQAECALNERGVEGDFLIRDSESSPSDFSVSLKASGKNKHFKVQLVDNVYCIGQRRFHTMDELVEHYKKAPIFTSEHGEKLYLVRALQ"}, "[27]": {"molecular_target": "VAV3 (Homo sapiens) (UniProt Q9UKW4)", "remark": "listed apart in the source"}, "[28]": {"molecular_target": "SHC1 (Homo sapiens) (UniProt P29353)", "sequence (P29353 483-583)": "as the sequence (P29353 483-583) above"}, "[29]": {"molecular_target": "SHC3 (Homo sapiens) (UniProt Q92529)", "sequence (Q92529 494-594)": "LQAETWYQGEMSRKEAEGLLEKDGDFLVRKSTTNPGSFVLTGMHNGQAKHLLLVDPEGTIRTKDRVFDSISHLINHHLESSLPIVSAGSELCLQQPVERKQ"}, "[30]": {"molecular_target": "SH3BP2 (Homo sapiens) (UniProt P78314)", "sequence (P78314 452-560)": "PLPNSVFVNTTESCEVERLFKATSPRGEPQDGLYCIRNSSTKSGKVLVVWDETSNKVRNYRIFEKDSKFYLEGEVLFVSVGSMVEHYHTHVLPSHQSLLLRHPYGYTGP"}},
  "note": "Like-named read-outs stand apart in the source and are kept apart here.",
  "data": [
    {"substance": "…pYLIPQQGFd", "values": [
      {"measurement": "apparent Kd (screen)", "setting": "[1]", "value": 934, "unit": "nM"},
      {"measurement": "apparent Kd (screen)", "setting": "[2]", "value": 873, "unit": "nM"},
      {"measurement": "apparent Kd (screen)", "setting": "[3]", "value": 769, "unit": "nM"},
      {"measurement": "apparent Kd (screen)", "setting": "[4]", "value": 193, "unit": "nM"},
      {"measurement": "apparent Kd (screen)", "setting": "[5]", "value": 2000, "unit": "nM"},
      {"measurement": "apparent Kd (screen)", "setting": "[6]", "value": 899, "unit": "nM"},
      {"measurement": "apparent Kd (screen)", "setting": "[7]", "value": 2000, "unit": "nM"},
      {"measurement": "apparent Kd (screen)", "setting": "[8]", "value": 204, "unit": "nM"}
    ]},
    {"substance": "…pYLVPQQGF", "values": [
      {"measurement": "apparent Kd (screen)", "setting": "[9]", "value": 2000, "unit": "nM"},
      {"measurement": "apparent Kd (screen)", "setting": "[10]", "value": 2000, "unit": "nM"},
      {"measurement": "apparent Kd (screen)", "setting": "[11]", "value": 1170, "unit": "nM"},
      {"measurement": "apparent Kd (screen)", "setting": "[12]", "value": 527, "unit": "nM"}
    ]},
    {"substance": "…pYWDQDPPE", "values": [
      {"measurement": "apparent Kd (screen)", "setting": "[13]", "value": 783, "unit": "nM"},
      {"measurement": "apparent Kd (screen)", "setting": "[14]", "value": 2000, "unit": "nM"},
      {"measurement": "apparent Kd (screen)", "setting": "[15]", "value": 192, "unit": "nM"},
      {"measurement": "apparent Kd (screen)", "setting": "[16]", "value": 1460, "unit": "nM"},
      {"measurement": "apparent Kd (screen)", "setting": "[17]", "value": 2000, "unit": "nM"},
      {"measurement": "apparent Kd (screen)", "setting": "[18]", "value": 2000, "unit": "nM"},
      {"measurement": "apparent Kd (screen)", "setting": "[19]", "value": 1970, "unit": "nM"},
      {"measurement": "apparent Kd (screen)", "setting": "[20]", "value": 2000, "unit": "nM"},
      {"measurement": "apparent Kd (screen)", "setting": "[21]", "value": 457, "unit": "nM"},
      {"measurement": "apparent Kd (screen)", "setting": "[22]", "value": 586, "unit": "nM"},
      {"measurement": "apparent Kd (screen)", "setting": "[23]", "value": 2000, "unit": "nM"}
    ]},
    {"substance": "…pYEEMRAFQ", "values": [
      {"measurement": "apparent Kd (screen)", "setting": "[24]", "value": 1250, "unit": "nM"},
      {"measurement": "apparent Kd (screen)", "setting": "[25]", "value": 10, "unit": "nM"},
      {"measurement": "apparent Kd (screen)", "setting": "[26]", "value": 1370, "unit": "nM"},
      {"measurement": "apparent Kd (screen)", "setting": "[27]", "value": 2000, "unit": "nM"},
      {"measurement": "apparent Kd (screen)", "setting": "[28]", "value": 999, "unit": "nM"},
      {"measurement": "apparent Kd (screen)", "setting": "[29]", "value": 123, "unit": "nM"},
      {"measurement": "apparent Kd (screen)", "setting": "[30]", "value": 2000, "unit": "nM"}
    ]}
  ]
}
